Data on one substance can be found in patent publication EP0952217A2.

This assay addresses SCCA1 recombinant protein expressed on transfected HepG2 and CHO cells (human) (UniProt P29508). Nature of the assay: virus-to-cell binding assay: transfected cells incubated 20 min with HBV-positive serum and washed, cell-associated HBV-DNA measured by hybrid capture.
UniProt P29508, sequence (P29508 whole entry T357A): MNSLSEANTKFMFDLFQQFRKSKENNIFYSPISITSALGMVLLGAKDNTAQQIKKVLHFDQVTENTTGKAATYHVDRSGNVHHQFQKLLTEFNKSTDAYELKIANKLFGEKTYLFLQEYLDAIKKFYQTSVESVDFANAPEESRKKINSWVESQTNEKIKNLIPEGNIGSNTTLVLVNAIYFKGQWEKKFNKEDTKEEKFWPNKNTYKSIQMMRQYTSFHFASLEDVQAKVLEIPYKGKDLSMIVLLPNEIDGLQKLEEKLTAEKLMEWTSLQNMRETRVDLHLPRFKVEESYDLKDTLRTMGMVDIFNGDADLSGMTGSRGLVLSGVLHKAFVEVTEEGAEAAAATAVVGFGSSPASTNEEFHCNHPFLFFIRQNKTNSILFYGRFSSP

Take “HBV viral particles from HBV-DNA positive serum of patients with acute hepatitis B”: the HBV-DNA value, fold over the control cell lines was > 8 .fold.
